According to patent US20080044419A1, “Treatment of T Cell Mediated Diseases by Inhibition of Fgfr3” (Fibron Ltd., priority 2003, published 2008):
Numbering of substitutions follows the chain as printed.

B1: PRO-012 Fab-dHLX (protein)
VH: QVQLKESGPALVKPTQTLTLTCTFSGFSLSTSGVGVGWIRQPPGKALEWLALIDWDDDKYYSTSLKTRLTISKDTSKNQVVLTMTNMDPVDTATYYCARYHSWYEMGYYGSTVGYMFDYWGQGTLVTVSS
VL: DIELTQPPSVSVAPGQTARISCSGDALGDKYASWYQQKPGQAPVLVIYDDSDRPSGIPERFSGSNSGNTATLTISGTQAEDEADYYCQSYDFDFAVFGGTKLTVLGQ
B2: PRO-029 Fab-dHLX (protein)
VH: QVQLVQSGAEVKKPGASVKVSCKASGYTFTSYYMHWVRQAPGQGLEWMGWINPNSGGTNYAQKFQGRVTMTRDTSISTAYMELSSLRSEDTAVYYCARTWQYSYFYYLDGGYYFDIWGQGTLVTVSS
VL: DIVLTQSPATLSLSPGERATLSCRASQSVSSSYLAWYQQKPGQAPRLLIYGASSRATGVPARFSGSGSGTDFTLTISSLEPEDFATYYCQQTNNAPVTFGQGTKVEIKRT
B3: PRO-029 (Fab, V domains shown)
VH: B2 VH
VL: DIVLTQSPATLSLSPGERATLSCRASQSVSSSYLAWYQQKPGQAPRLLIYGASSRATGVPARFSGSGSGTDFTLTISSLEPEDFATYYCQQTNNAPVTFGQGTKVEIKR
B4: PRO-026 Fab-dHLX (protein)
VH: QVQLVQSGAEVKKPGASVKVSCKASGYTFTSYYMHWVRQAPGQGLEWMGWINPNSGGTNYAQKFQGRVTMTRDTSISTAYMELSSLRSEDTAVYYCARGYWYAYFTYINYGYFDNWGQGTLVTVSS
VL: DIALTQPASVSGSPGQSITISCTGTSSDVGGYNYVSWYQQHPGKAPKLMIYDVSNRPSGVSNRFSGSKSGNTASLTISGLQAEDEADYYCQSYDNNSDVVFGGGTKLTVLGQ
B5: PRO-026 (Fab, V domains shown)
VH: B4 VH
VL: DIALTQPASVSGSPGQSITISCTGTSSDVGGYNYVSWYQQHPGKAPKLMIYDVSNRPSGVSNRFSGSKSGNTASLTISGLQAEDEADYYCQSYDNNSDVVFGGGTKLTVLG
B6: PRO-055 Fab-dHLX (protein)
VH: QVQLVQSGAEVKKPGASVKVSCKASGYTFTSYYMHWVRQAPGQGLEWMGWINPNSGGTNYAQKFQGRVTMTRDTSISTAYMELSSLRSEDTAVYYCARSMNSTMYWYLRRVLFDHWGQGTLVTVSS
VL: B4 VL with N95M, N96Y, S97N, D98Y, V99I
B7: PRO-021 Fab-dHLX (protein)
VH: QVQLVQSGAEVKKPGSSVKVSCKASGGTFSSYAISWVRQAPGQGLEWMGGIIPIFGTANYAQKFQGRTITADESTSTAYMELSSLRSEDTAVYYCARDNWFKPFSDVWGQGTLVTVSS
VL: not shown
B8: PRO-054 Fab-dHLX (protein)
VH: QVQLVQSGAEVKKPGASVKVSCKASGYTFTSYYMHWVRQAPGQGLEWMGWINPNSGGTNYAQKFQGRVTMTRDTSISTAYMELSSLRSEDTAVYYCARNMAYTNYQYVNMPHFDYWGQGTLVTVSS
VL: DIELTQPPSVSVAPGQTARISCSGDALGDKYASWYQQKPGQAPVLVIYDDSDRPSGIPERFSGSNSGNTATLTISGTQAEDEADYYCQSYDYFKLVFGGGTKLTVLGQ
B9: PRO-002 (Fab, V domains shown)
VH: QVQLVQSGAEVKKPGASVKVSCKASGYTFTSYYMHWVRQAPGQGLEWMGWINPNSGGTNYAQKFQGRVTMTRDTSISTAYMELSSLRSEDTAVYYCARDFLGYEFDYWGQGTLVTVSS
VL: DIELTQPPSVSVAPGQTARISCSGDALGDKYASWYQQKPGQAPVLVIYDDSDRPSGIPERFSGSNSGNTATLTISGTQAEDEADYYCQSYDYSADYVFGGGTKLTVLG
B10: PRO-001 Fab-dHLX (protein)
VH: QVQLQQSGPGLVKPSQTLSLTCAISGDSVSSNSAAWNWIRQSPGRGLEWLGRTYYRSKWYNDYAVSVKSRITINPDTSKNQFSLQLNSVTPEDTAVYYCARSYYPDFDYWGQGTLVTVSS
VL: DIELTQPPSVSVAPGQTARISCSGDALGDKYASWYQQKPGQAPVLVIYDDSDRPSGIPERFSGSNSGNTATLTISGTQAEDEADYYCQSYDGPDLWVFGGGTKLTVLGQ
B11: PRO-002 Fab-dHLX (protein)
VH: B9 VH
VL: B10 VL with G92Y, P93S, D94A, L95D, W96Y
B12: PRO-001 (Fab, V domains shown)
VH: B10 VH
VL: B9 VL with Y92G, S93P, A94D, D95L, Y96W
B13: PRO-024 Fab-dHLX (protein)
VH: QVQLVQSGAEVKKPGSSVKVSCKASGGTFSSYAISWVRQAPGQGLEWMGGIIPIFGTANYAQKFQGRVTITADESTSTAYMELSSLRSEDTAVYYCARVNHWTYTFDYWGQGTLVTVSS
VL: not shown

Assays:
[1] = target: fibroblast growth factor receptor 3 (FGFR3), P22607; test: cell-based or functional assay
[2] = target: fibroblast growth factor receptor 3 (FGFR3) (UniProt P22607); test: FACS
[3] = target: fibroblast growth factor receptor 3 (FGFR3) (UniProt P22607); test: not stated (BIAcore presumably)
[4] = target: fibroblast growth factor receptor 3 (FGFR3) (UniProt P22607); test: BIAcore

Row | Binder | IC50 FGFR3 (FGF9), FDCP-FGFR3 proliferation assay performed with FGF9 [1] | Kd [2] | also measured
1 | B1 | 58 nM | – | –
2 | B2 | 20 nM | – | –
3 | B3 | – | < 1 nM | –
4 | B4 | 70 nM | – | –
5 | B5 | – | 1.4 nM | –
6 | B6 | 34 nM | – | –
7 | B7 | 50 nM | – | –
8 | B8 | 45 nM | – | –
9 | B9 | – | 43 nM | –
10 | B10 | 19 nM | – | –
11 | B11 | 360 nM | – | –
12 | B12 | – | 0.7 nM | koff [3]: 0.00071 s⁻¹; Kd [4]: 1.5 nM
13 | B13 | 70 nM | – | –
